Experimental findings from publication PMC5669894 are described below.

Assay [1] concerns the target C-terminal SH3 domain of the growth factor receptor-bound protein 2 (Grb2) (UniProt P62993). Description: stopped-flow binding kinetics (intrinsic fluorescence); pseudo-first order; Grb2 SH3C constant at 0.5 μM, Gab2 503-524 peptide 1-10 μM (1-12 μM for P519A); 10°C; 25mM HEPES, 100mM potassium acetate, pH 7.5; apparent association and dissociation rate constants.
For assay [2] the target is unchanged. The experiment in a line: stopped-flow displacement kinetics (intrinsic fluorescence); pre-incubated complex of wild type Grb2 SH3C (10 μM) and Gab2 503-524 (10 μM) mixed with excess Grb2 SH3C W35Y/W36Y (100 μM and 200 μM); 25°C; 25mM HEPES, 100mM potassium acetate, pH 7.5.

Sequence of Gab2 503-524 peptide, wild type (Q9UQC2 503-524): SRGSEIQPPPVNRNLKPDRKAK

On to Gab2 503-524 peptide, variant P510A, for which the Kd in assay [1] turned out to be 2500 nM. Still for that read-out and setting: the value for Gab2 503-524 peptide, variant P512A was 2500 nM. The same measure, in the same setting: the value for Gab2 503-524 peptide, variant P519A was 12000 nM.

With Gab2 503-524 peptide, wild type, in assay [2], the koff worked out at 350 s⁻¹. In assay [1], the koff worked out at 53 s⁻¹ and the on-rate (kon) is 4.3e+07 M⁻¹ s⁻¹.
